Measurements as given in patent US10669350B2, “Antigen-binding constructs that bind to and inhibit catalase and/or superoxide dismutase as well as pharmaceutical compositions containing them for tumor therapy” (priority 2015, dated 2020).
Entries after “also recorded” stand apart in the source; their conditions may differ.

What was measured:
[1] = test system: human neuroblastoma line SHEP; assay: Standard preparation for apoptosis induction in SHEP cells (percentage of apoptotic cells); type: cell-based
Method: (§1) The experiments shown in FIG. 13-24 were carried out with a standard preparation for the apoptosis induction that is based on the method performed in Heinzelmann and Bauer 2010. The tumor cells used were taken from an optimally growing semi-sealed culture, centrifuged and placed in fresh medium. The test was performed in 96-well cell culture plates with 12 500 MKN-45 cells/100 μl medium or 10 000 SHEP cells/100 μl medium. MKN-45 cells grow in suspension, SHEP cells are adherent. The tests with SHEP cells were started as soon as the cells had grown on. By adding increasing concentrations of single domain VHH fragments that either inhibit catalase or SOD the protection of the tumor cells from their own ROS signaling was annulled so that based on the cell-owned extracellular superoxide anion production the NO/peroxynitrite signal path and the HOCl path (with MKN-45 cells) or in case of the SHEP cells only the NO/peroxynitrite path could start when the cells were incubated at 37° C. The analysis of the signal paths was carried out by the application of inhibitors of the NADPH oxidase (AEBSF), the HOCl scavenger taurine, the peroxynitrite scavenger FeTPPS and the singlet oxygen scavenger histidine. In some experiments for comparison instead of the single domain VHH fragments either recombinant Fab fragments or monoclonal antibodies were applied. This is indicated in the respective illustrations.
(§2) Double preparations were examined at the times shown in the text by means of phase contrast reverse microscopy for the percentage of apoptotic cells. Here, the classical apoptosis criteria described and documented in Heinzelmann and Bauer 2010 such as condensation of the nucleus, fragmentation of the nucleus, and membrane blebbing were used. Per single preparation at least 250 randomly selected cells were examined for the presence of apoptosis features.
10 000 cells of the human neuroblastoma line SHEP per 100 μl medium were mixed with the given concentrations of the catalase-neutralizing single domain VHH fragment aCATcb0972, the SOD-neutralizing single domain VHH fragment aSOD0989, the SOD-binding but not neutralizing single domain VHH fragment aSODcb991 and the hybrid molecule aCATaSOD and incubated for 5 hours at 37° C., 5% CO2, before percentages of apoptotic cells were determined.
10 000 cells of the human neuroblastoma line SHEP per 100 μl medium were mixed with the given concentrations of the SOD-neutralizing single domain VHH fragment aSOD0989. Parallel preparations received 20 μM or 100 μM of the NO donor sodium nitroprusside or were incubated without a further additive. After 5 hours at 37° C., 5% CO2 the percentages of apoptotic cells were determined.

human SOD1 [2] = molecular target: T1, human SOD1 (Homo sapiens, UniProt P00441); assay: ELISA selection of clones binding to human SOD1
T1 sequence (P00441 2-154 limits assumed): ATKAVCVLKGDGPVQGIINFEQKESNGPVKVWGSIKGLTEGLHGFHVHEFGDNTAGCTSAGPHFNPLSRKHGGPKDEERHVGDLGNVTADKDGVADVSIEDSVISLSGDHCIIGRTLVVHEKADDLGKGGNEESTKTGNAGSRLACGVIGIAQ
Excerpt: The preparation was by immunizing alpacas with human SOD1 (SOD1=Cu/ZnSOD [EC 1.15.1.1] purified from human erythrocytes, obtained from Sigma (Schnelldorf), catalogue number S 9636) under supervision of a veterinary, obtaining RNA from the B cells of the animals, reverse transcription, cloning in E. coli and isolation via the phage display technology. […] In a second run, by employing the cell culture system described by Heinzelmann and Bauer (Multiple protective functions of catalase against intercellular apoptosis-inducing ROS signaling of human tumor cells, Biol. Chem. 391, 675-693, 2010) it was checked which of the single domain VHH fragments binding to SOD actually results in an inhibition of SOD, what is expressed in the tumor system used as ROS-dependent apoptosis induction in the cells, since by the inhibition of SOD the concentration of free superoxide anions dramatically increases due to the absence of the enzymatic dismutation and results in a parallel indirect inhibition of catalase. In the following, this is expressed as ROS-dependent apoptosis induction. In a further control trial the specific inhibition of SOD by recombinant single domain VHH fragments was verified by the fact that the increasing effect of these fragments on apoptosis induction by exogenously added HOCl was examined, as described in Bauer 2013 (HOCl-dependent singlet oxygen and hydroxyl radical generation modulate and induce apoptosis of malignant cells. Anticancer Res 33: 3589-3602, 2013).

human SOD1 [3] = molecular target: T1, human SOD1; assay: Check for inhibition (neutralization) of SOD, ROS-dependent apoptosis induction and HOCl control trial; type: cell-based; set-up: endogenous in cells; host or cells: MKN-45 human gastric carcinoma cells
Excerpt: Thus, the inhibition of the SOD mediated by single domain VHH or Fab fragments (comparison) can be determined by the fact that the apoptosis induction of tumor cells by exogenously added HOCl is employed as the test system. HOCl in a concentration depending manner induces apoptosis that is based on the interaction between HOCl and superoxide anions that results in the formation of aggressive hydroxyl radicals (Bauer G. HOCl-dependent singlet oxygen and hydroxyl radical generation modulate and induce apoptosis of malignant cells. Anticancer Res 33: 3589-3602, 2013). […] That is, the neutralizing effect of single domain VHH or Fab fragments can be determined by checking whether the inhibition of the apoptosis is abolished again by the single domain VHH or Fab fragments to be tested. The quantitative employment of said test system requires linking several simple steps the skilled person is familiar with. In the first step the concentration of commercially available HOCl (or sodium hypochlorite that sufficiently forms HOCl in medium) is determined that generates a significant quantifiable apoptosis signal within a reasonable trial time (1-2 hours). […] As soon as the first two steps have been satisfactorily performed there can take place the actual test of the inhibiting effect of the single domain VHH or Fab fragments. For that, selected concentrations of the fragments to be tested are pre-incubated for 20 minutes with the optimal concentration of SOD determined in advance in step #2. Subsequently, said mixture is added to the test cells. Thereafter, HOCl is added and the apoptosis induction is determined. […]
The preparation was by immunizing alpacas with human SOD1 (SOD1=Cu/ZnSOD [EC 1.15.1.1] purified from human erythrocytes, obtained from Sigma (Schnelldorf), catalogue number S 9636) under supervision of a veterinary, obtaining RNA from the B cells of the animals, reverse transcription, cloning in E. coli and isolation via the phage display technology. […] In the following, this is expressed as ROS-dependent apoptosis induction. […]

[4] = test system: MKN-45 gastric carcinoma cells; assay: Standard preparation for autocrine ROS-controlled apoptosis induction in tumor cells (percentage of apoptotic cells); type: cell-based, human
Method: as §1
as §2, with “features. […]” for “features.”

[5] = test system: human colon carcinoma xenotransplant; assay: Growth of human colon carcinoma xenotransplant on immunocompromised mice; type: in vivo
Method: The experiments carried out in FIGS. 28A and 28B and FIG. 29 were carried out by a commercial certified supplier (Oncotest GmbH, Freiburg). Here, xenotransplants of a human colon carcinoma were implanted in suitable mice. After the tumors had grown on and a certain minimum size had been achieved, the therapeutic test was started. aSODcb0989 in the indicated doses (mg/kg body weight) or buffer were intravenously applied twice a week. Also, the tumor sizes were measured twice a week by means of a caliber.

Molecule	concentration required for apoptosis-inducing effect relative to the neutralizing single domain VHH fragment ([1]; 5 hours)	apoptosis induction in SHEP cells ([1]; 5 hours at 37° C., 5% CO2)	binding to human SOD1 (human SOD1 [2])	neutralization (inhibition) of human SOD1 (human SOD1 [3])	apoptosis induction in the presence of peroxynitrite scavenger FeTPPS ([4]; 25 μM FeTPPS)	apoptosis induction in the presence of HOCl scavenger taurine ([4]; 50 mM taurine)	apoptosis induction in combination with 0.005 pg/ml of the complementary single domain VHH fragment ([4]; 3.5 hours, FIG. 18)	optimum conc. ([4]; Table 1, concentration necessary for optimum apoptosis induction, taken from FIGS. 13A, 13B, 15A, 15B, 20) [pg/mL]	optimum conc. ([4]; Table 2, FIG. 20 experiment, 3.5 hours) [pg/mL]	ROS signaling path induced ([4]; inhibitor analysis)	tumor growth versus control group ([5]; 0.03 mg/kg intravenously twice a week)	tumor growth versus control group ([5]; 0.3 mg/kg intravenously twice a week)	tumor growth versus control group ([5]; 0.9 mg/kg intravenously twice a week)
aSODcb0991: single domain VHH fragment binding to human SOD1, but not neutralizing; SEQ ID NO: 16 (protein, SOD binding) VHH: MAQVQLVESGGGIVQPGGSLRLSCVASESISDIDAMYWHRQAPGKRRELVAGITNDGTEYFADSVKGRFAISRDNTKSSLYLQMNSLKLEDTAMYYCATLPNPPPGYWGQGTQVTVSSKKKHHHHHH	10^6 fold	at high concentrations also achieves an apoptosis-inducing effect; also recorded: weak but significant apoptosis induction	bind to human SOD1	do not neutralize it	–	–	–	–	–	–	–	–	–
aSODcb0989: single domain VHH fragment that binds to and neutralizes human SOD1; SEQ ID NO: 15 (protein, SOD binding) VHH: MAQVQLVESGGGLVQSGGSLTLSCTASGFTISNYPMTWVRQAPGKGLEWVSRINSGGDRTLYADSVKGRFTVSRDNARNTMYLQMNNLKPEDTGLYFCADSGAGWRYWGQGTQVTVSSKKKHHHHHH	–	–	binds to	neutralizes human SOD1	complete inhibition by means of FeTPPS	disappearance of an inhibition by taurine	noteworthy synergistic effect	1.2	0.35	exclusively via the NO/peroxynitrite path	there does not result a recognizable difference to the controls	very clearly differs from the control group	in some animals the growth inhibition is enhanced, whereas in other animals there is caused the contrary
